Reference: PMC4882601, “Binding of Human Fibrinogen to MRP Enhances Streptococcus suis Survival in Host Blood in a αXβ2 Integrin-dependent Manner” (Scientific Reports, 2016)

Assays:
[1] = molecular target: T1, hisMRP-N (a.a. 48-721, the N-terminus of muramidase-released protein) (Streptococcus suis serotype 2 strain …, UniProt P32653 48-721, biotin (in the far-Western and on the BLI biosensors)); assay: BLI
T1 chain: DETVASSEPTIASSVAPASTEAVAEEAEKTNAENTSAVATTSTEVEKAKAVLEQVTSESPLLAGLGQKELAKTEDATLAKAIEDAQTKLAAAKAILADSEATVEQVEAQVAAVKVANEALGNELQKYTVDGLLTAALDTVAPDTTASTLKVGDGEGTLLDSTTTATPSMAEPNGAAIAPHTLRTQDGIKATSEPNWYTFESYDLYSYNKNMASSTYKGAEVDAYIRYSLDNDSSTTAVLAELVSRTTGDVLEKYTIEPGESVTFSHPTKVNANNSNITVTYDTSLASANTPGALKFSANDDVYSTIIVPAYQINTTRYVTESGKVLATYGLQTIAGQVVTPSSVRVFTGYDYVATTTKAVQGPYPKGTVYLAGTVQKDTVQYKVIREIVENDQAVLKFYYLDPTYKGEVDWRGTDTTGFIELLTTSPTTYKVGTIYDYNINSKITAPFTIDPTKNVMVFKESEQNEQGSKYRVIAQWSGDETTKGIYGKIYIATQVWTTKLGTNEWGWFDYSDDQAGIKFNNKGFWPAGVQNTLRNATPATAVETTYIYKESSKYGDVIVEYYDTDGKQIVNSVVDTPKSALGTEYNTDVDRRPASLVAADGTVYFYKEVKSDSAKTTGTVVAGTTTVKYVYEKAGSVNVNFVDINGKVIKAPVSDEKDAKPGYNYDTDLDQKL

[2] = molecular target: T2, human fibrinogen (human, UniProt P02671-2 20-644; P02675 31-491; P02679-2 27-437, biotin on hFg (which chain is not told) in the ELISA with immobilised MRP); assay: BLI; biotinylated MRP-N proteins immobilised on streptavidin biosensors, hFg, Fg-D or Fg-E as analyte, PBST, 1:1 binding model; conditions: both partners purified
T2 construct: Fibrinogen Aα chain, human (63.5 kDa band); Fibrinogen Bβ chain, human (56 kDa band); Fibrinogen γ chain, human (47 kDa band); Three pairs of Aα, Bβ and γ chains; also called hFg; Fg; source: bought: Merck; copies: 2 + 2 + 2
T2 sequence (looked up) 1: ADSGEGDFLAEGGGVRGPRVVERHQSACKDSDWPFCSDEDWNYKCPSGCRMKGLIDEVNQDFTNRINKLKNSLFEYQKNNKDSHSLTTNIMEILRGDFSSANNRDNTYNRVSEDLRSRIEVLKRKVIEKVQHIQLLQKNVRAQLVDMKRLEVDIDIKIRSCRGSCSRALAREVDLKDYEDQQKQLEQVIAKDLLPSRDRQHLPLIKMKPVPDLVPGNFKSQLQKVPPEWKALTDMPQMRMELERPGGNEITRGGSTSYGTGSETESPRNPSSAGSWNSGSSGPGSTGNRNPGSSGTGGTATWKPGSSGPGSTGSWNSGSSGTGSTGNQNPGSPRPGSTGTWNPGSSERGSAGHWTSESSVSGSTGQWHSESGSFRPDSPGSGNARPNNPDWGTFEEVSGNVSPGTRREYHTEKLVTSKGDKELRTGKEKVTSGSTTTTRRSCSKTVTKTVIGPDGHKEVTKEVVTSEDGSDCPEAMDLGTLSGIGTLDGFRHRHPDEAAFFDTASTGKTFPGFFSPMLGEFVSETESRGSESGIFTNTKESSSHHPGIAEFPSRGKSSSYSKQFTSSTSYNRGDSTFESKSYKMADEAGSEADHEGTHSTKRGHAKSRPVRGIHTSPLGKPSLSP
T2 sequence (looked up) 2: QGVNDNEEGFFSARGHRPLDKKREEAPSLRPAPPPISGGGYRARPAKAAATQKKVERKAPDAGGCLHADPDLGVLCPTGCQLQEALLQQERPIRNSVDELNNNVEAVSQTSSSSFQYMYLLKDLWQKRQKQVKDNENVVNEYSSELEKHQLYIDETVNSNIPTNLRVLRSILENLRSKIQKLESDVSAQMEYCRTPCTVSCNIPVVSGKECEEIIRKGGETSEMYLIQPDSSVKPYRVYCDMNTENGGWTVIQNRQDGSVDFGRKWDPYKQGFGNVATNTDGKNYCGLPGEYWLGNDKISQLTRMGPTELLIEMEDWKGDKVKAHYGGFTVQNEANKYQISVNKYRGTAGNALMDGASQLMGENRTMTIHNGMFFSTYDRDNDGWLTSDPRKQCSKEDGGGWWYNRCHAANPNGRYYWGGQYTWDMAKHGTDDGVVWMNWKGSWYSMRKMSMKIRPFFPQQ
T2 sequence (looked up) 3: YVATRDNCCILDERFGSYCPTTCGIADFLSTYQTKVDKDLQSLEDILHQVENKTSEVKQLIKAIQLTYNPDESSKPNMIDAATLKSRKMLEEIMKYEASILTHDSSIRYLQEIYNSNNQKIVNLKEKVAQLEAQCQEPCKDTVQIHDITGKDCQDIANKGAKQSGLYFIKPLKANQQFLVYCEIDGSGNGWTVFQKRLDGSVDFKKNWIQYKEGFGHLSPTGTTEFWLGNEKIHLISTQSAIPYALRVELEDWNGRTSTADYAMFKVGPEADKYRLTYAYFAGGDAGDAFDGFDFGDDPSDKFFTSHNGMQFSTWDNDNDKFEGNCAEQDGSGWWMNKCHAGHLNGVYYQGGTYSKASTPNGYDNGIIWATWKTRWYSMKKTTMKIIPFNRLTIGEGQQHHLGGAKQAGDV

B1: human fibrinogen (complex)
chain 1: ADSGEGDFLAEGGGVRGPRVVERHQSACKDSDWPFCSDEDWNYKCPSGCRMKGLIDEVNQDFTNRINKLKNSLFEYQKNNKDSHSLTTNIMEILRGDFSSANNRDNTYNRVSEDLRSRIEVLKRKVIEKVQHIQLLQKNVRAQLVDMKRLEVDIDIKIRSCRGSCSRALAREVDLKDYEDQQKQLEQVIAKDLLPSRDRQHLPLIKMKPVPDLVPGNFKSQLQKVPPEWKALTDMPQMRMELERPGGNEITRGGSTSYGTGSETESPRNPSSAGSWNSGSSGPGSTGNRNPGSSGTGGTATWKPGSSGPGSTGSWNSGSSGTGSTGNQNPGSPRPGSTGTWNPGSSERGSAGHWTSESSVSGSTGQWHSESGSFRPDSPGSGNARPNNPDWGTFEEVSGNVSPGTRREYHTEKLVTSKGDKELRTGKEKVTSGSTTTTRRSCSKTVTKTVIGPDGHKEVTKEVVTSEDGSDCPEAMDLGTLSGIGTLDGFRHRHPDEAAFFDTASTGKTFPGFFSPMLGEFVSETESRGSESGIFTNTKESSSHHPGIAEFPSRGKSSSYSKQFTSSTSYNRGDSTFESKSYKMADEAGSEADHEGTHSTKRGHAKSRPVRGIHTSPLGKPSLSP
chain 2: QGVNDNEEGFFSARGHRPLDKKREEAPSLRPAPPPISGGGYRARPAKAAATQKKVERKAPDAGGCLHADPDLGVLCPTGCQLQEALLQQERPIRNSVDELNNNVEAVSQTSSSSFQYMYLLKDLWQKRQKQVKDNENVVNEYSSELEKHQLYIDETVNSNIPTNLRVLRSILENLRSKIQKLESDVSAQMEYCRTPCTVSCNIPVVSGKECEEIIRKGGETSEMYLIQPDSSVKPYRVYCDMNTENGGWTVIQNRQDGSVDFGRKWDPYKQGFGNVATNTDGKNYCGLPGEYWLGNDKISQLTRMGPTELLIEMEDWKGDKVKAHYGGFTVQNEANKYQISVNKYRGTAGNALMDGASQLMGENRTMTIHNGMFFSTYDRDNDGWLTSDPRKQCSKEDGGGWWYNRCHAANPNGRYYWGGQYTWDMAKHGTDDGVVWMNWKGSWYSMRKMSMKIRPFFPQQ
chain 3: YVATRDNCCILDERFGSYCPTTCGIADFLSTYQTKVDKDLQSLEDILHQVENKTSEVKQLIKAIQLTYNPDESSKPNMIDAATLKSRKMLEEIMKYEASILTHDSSIRYLQEIYNSNNQKIVNLKEKVAQLEAQCQEPCKDTVQIHDITGKDCQDIANKGAKQSGLYFIKPLKANQQFLVYCEIDGSGNGWTVFQKRLDGSVDFKKNWIQYKEGFGHLSPTGTTEFWLGNEKIHLISTQSAIPYALRVELEDWNGRTSTADYAMFKVGPEADKYRLTYAYFAGGDAGDAFDGFDFGDDPSDKFFTSHNGMQFSTWDNDNDKFEGNCAEQDGSGWWMNKCHAGHLNGVYYQGGTYSKASTPNGYDNGIIWATWKTRWYSMKKTTMKIIPFNRLTIGEGQQHHLGGAKQAGDV
modifications: biotin on hFg (which chain is not told) in the ELISA with immobilised MRP
koff [1]: 0.0989 s⁻¹

B2: hisMRP-N (a.a. 48-721, the N-terminus of muramidase-released protein) (domain or fragment)
chain: DETVASSEPTIASSVAPASTEAVAEEAEKTNAENTSAVATTSTEVEKAKAVLEQVTSESPLLAGLGQKELAKTEDATLAKAIEDAQTKLAAAKAILADSEATVEQVEAQVAAVKVANEALGNELQKYTVDGLLTAALDTVAPDTTASTLKVGDGEGTLLDSTTTATPSMAEPNGAAIAPHTLRTQDGIKATSEPNWYTFESYDLYSYNKNMASSTYKGAEVDAYIRYSLDNDSSTTAVLAELVSRTTGDVLEKYTIEPGESVTFSHPTKVNANNSNITVTYDTSLASANTPGALKFSANDDVYSTIIVPAYQINTTRYVTESGKVLATYGLQTIAGQVVTPSSVRVFTGYDYVATTTKAVQGPYPKGTVYLAGTVQKDTVQYKVIREIVENDQAVLKFYYLDPTYKGEVDWRGTDTTGFIELLTTSPTTYKVGTIYDYNINSKITAPFTIDPTKNVMVFKESEQNEQGSKYRVIAQWSGDETTKGIYGKIYIATQVWTTKLGTNEWGWFDYSDDQAGIKFNNKGFWPAGVQNTLRNATPATAVETTYIYKESSKYGDVIVEYYDTDGKQIVNSVVDTPKSALGTEYNTDVDRRPASLVAADGTVYFYKEVKSDSAKTTGTVVAGTTTVKYVYEKAGSVNVNFVDINGKVIKAPVSDEKDAKPGYNYDTDLDQKL
modifications: biotin (in the far-Western and on the BLI biosensors)
notes: Muramidase-released protein (MRP) of Streptococcus suis serotype 2 strain 05ZYH33, gene SSU05_0753, residues 48-721; also called hisMRP-N_(48-721); source: cloned into pET-28a, expressed, purified by Ni-chelating chromatography
Kd [2]: 340 nM
